B1: Subtilisin inhibitor, P01006 (parent)
chain: MRNTGAGPSPSVSRPPPSAAPLSGAALAAPGDAPSALYAPSALVLTVGKGVSATTAAPERAVTLTCAPGPSGTHPAAGSACADLAAVGGDLNALTRGEDVMCPMVYDPVLLTVDGVWQGKRVSYERVFSNECEMNAHGSSVFAF

Variants of: B1
Conditions: Streptomyces albogriseolus, Thermal, DSC, reversible: yes, structure 3SSI, whole UniProt chain shown; for ddG of mutation (higher = less stable) / unfolding free energy: 53.36 °C

| Variant | Tm (pH 3.2, glycine 25 mM) | change of melting temperature, mutant - wild type (higher = more stable) (pH 3.2, glycine 25 mM) | unfolding enthalpy (calorimetric) (pH 3.2, glycine 25 mM) | ddG of mutation (higher = less stable) (pH 7, phosphate 25 mM) | unfolding free energy (pH 7, phosphate 25 mM) | Tm (pH 7, phosphate 25 mM) | change of melting temperature, mutant - wild type (higher = more stable) (pH 7, phosphate 25 mM) | unfolding enthalpy (calorimetric) (pH 7, phosphate 25 mM) | ddG of mutation (higher = less stable) (pH 9.5, glycine 25 mM) | unfolding free energy (pH 9.5, glycine 25 mM) | Tm (pH 9.5, glycine 25 mM) | change of melting temperature, mutant - wild type (higher = more stable) (pH 9.5, glycine 25 mM) | unfolding enthalpy (calorimetric) (pH 9.5, glycine 25 mM) | ddG of mutation (higher = less stable) (pH 3.2, glycine 25 mM) | unfolding free energy (pH 3.2, glycine 25 mM) |
| --- | --- | --- | --- | --- | --- | --- | --- | --- | --- | --- | --- | --- | --- | --- | --- |
| M104K | 57.1 °C | 3.71 °C | 107 kcal/mol | -0.35 kcal/mol | 6.38 kcal/mol | 82.9 °C | 0.65 °C | 192 kcal/mol | -0.05 kcal/mol | 6.09 kcal/mol | 80.9 °C | 0.17 °C | 188 kcal/mol |  |  |
| M104D | 56.8 °C | 3.46 °C | 98.7 kcal/mol | -1.6 kcal/mol | 7.63 kcal/mol | 85.3 °C | 3.08 °C | 182 kcal/mol | -1.25 kcal/mol | 7.29 kcal/mol | 83.3 °C | 2.59 °C | 177 kcal/mol |  |  |
| M104G | 52.7 °C | -0.7 °C | 106 kcal/mol | 0.06 kcal/mol | 5.97 kcal/mol |  |  |  | 0.49 kcal/mol | 5.55 kcal/mol | 79.8 °C | -0.87 °C | 186 kcal/mol |  |  |
| M104V |  |  |  | 0.66 kcal/mol | 5.37 kcal/mol | 81 °C | -1.17 °C | 193 kcal/mol | 0.95 kcal/mol | 5.09 kcal/mol | 79 °C | -1.75 °C | 189 kcal/mol | 0.46 kcal/mol | 5.09 kcal/mol |

From FireProtDB (doi:10.1006/jmbi.1995.0325)
